The results in this text go back to patent publication US20240254182A1.

The target of the test is design 9 G-CSFR(Ig-CRH)E, tag cleaved (human) (UniProt Q99062). Briefly: SPR, WT G-CSF against design 9 G-CSFR(Ig-CRH)E; steady state derived affinity constant. (In general: In SPR one partner is held on a chip, and binding of the other changes the refractive index at the surface.)

For “WT G-CSF, purified from insect cells, tag cleaved (from UniProt P09919 31-206) (ligand)”, the KD fold change (against WT:WT) was determined as 8810 fold.
